Source: the nanobody polyreactivity screen of Harvey et al. (2022)

Assay: yeast display, Sf9 membrane polyspecificity reagent, FACS + sequencing; frameworks hold sequencing errors
In short: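 A synthetic nanobody library was expressed on Saccharomyces cerevisiae BJ5465 by galactose induction for 36–48 hours. The library was stained for 1 hour at 4 °C with 10% biotinylated, detergent-solubilized Sf9 membrane reagent and enriched with streptavidin microbeads before FACS. Low and high (top ~1%) gates were set on anti-HA fluorescence for expression and streptavidin fluorescence for reagent binding, and each polyreactivity label reflects the gate of origin.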

Question: Which “polyreactivity (PSR sort gate)” value does the source give for “QVQVVESGGGLVQAGGSLRLSCAASGSIFGANTMGWYRPAPGKERELVAAISSGGNTYYADSVKGRFTISRDNAKNTVYLQMNSLKPEDTAVYYCNAQTRYLYQYGYLGGTGYNYWGQGTQVTVSS” here?
Answer: low polyreactivity

Question: Which “polyreactivity (PSR sort gate)” value does the source give for “QVQVVESGGGLVQAGGSLRLSCAASGSIFSSYAMGWYRQAPGKERELVAAITGSGGSTDYADSVKGRFTISRDNAKNTVYLQMNSLKPEDTAVYYCAARRFWPGNSYYYRYYYWGQGTQVTVSS” here?
Answer: low polyreactivity

Question: For “QVQVVESGGGLVQAGGSLRLSCAASGSIFVGYAMGWYRQAPGKEREFVAGITARGGSTYYADSVKGRFTISCDNAKNTVYIPMNSQKPEDSAVYYCAADDGSENDYWGQGTQVTVSS”, which “polyreactivity (PSR sort gate)” value is on record?
Answer: low polyreactivity

Question: With “QVQVVESGGGLVQAGGSLRLSCAASGSTFPGNAMGWYRQAPGKERDLVAAITSTGTTYYADSVKGRFTISRDNAKNTVYLQMNSLKPEDTAVYYWNADPSPDPSTFDYWGQGTLVTVSS” as the sequence, how does the “polyreactivity (PSR sort gate)” value read?
Answer: low polyreactivity

Question: With “QVQVVESGGGLVQAGGSLRLSCAASGSTFRYYAMGWYRQAAGKERELVASITVSVGRTYYADSVKGRFTISRDYAKNTVYLQMNILKPEDTAVYYCAAPRGRLVRPPKYYYWGQGTQLTVSS” as the sequence, how does the “polyreactivity (PSR sort gate)” value read?
Answer: high polyreactivity

Question: For “QVQVVESGGGLVQAGGSLRLSCAASGSTFTIYAMGWYRQAPGKERELVALITWSGGSTYYADSVKGRFTISRDNAKNTVYLQMNSLKPEDTAVYYCAADYYRPVPGGYYWGQGTQVTVSS”, which “polyreactivity (PSR sort gate)” value is on record?
Answer: high polyreactivity

Question: With “QVQVVESGGGLVQAGGSLRLSCAASGSTFYSNAMGWYSQAAGQERELVAAITWSDGSTYYADSVMGRFTISRDNAKHTVYVQMNSHKPEDTALYYCSATQAEVVWTPVYVEYDYWGQGTQVTVSS” as the sequence, how does the “polyreactivity (PSR sort gate)” value read?
Answer: high polyreactivity

Question: With “QVQVVESGGGLVQAGGSLRLSCAPSGRTFYGNVMGWYRQAPGKERELVAAISSRGSSTRYADSVKGRFTISRDNAKNTVYLQMNRLKPEDTAVYYCAARNEYWGQGTQVTVSS” as the sequence, how does the “polyreactivity (PSR sort gate)” value read?
Answer: high polyreactivity

Question: For “QVQVVESGGGLVQAGGSLRLTCAASGRTFINYAIGRYRQPAAKERELVAAITPGGRTNYADSVKGRFTNSRDNAKYTVYLQMNSVTPEDTAVYYCAADRYYWGRYTLNYWGQGTQVTVSS”, which “polyreactivity (PSR sort gate)” value is on record?
Answer: low polyreactivity

Question: With “QVQVVESWGGLVQEAGSLRLSCAASGRTFAHYNMGSYRQAPGKERELVARIDWSCGNTYYADSVKGRFTISRDNAKITVFLQMNRLKPQDTAVYYCAAVPAFYNAWGEDYEYWGQGTHVTVSS” as the sequence, how does the “polyreactivity (PSR sort gate)” value read?
Answer: low polyreactivity

Question: For “QVRLVESGGGLVQAGCSLRLSCAASGSTFWSYAMGWYRQAPGKERELVAAISWSGDSTYYADSVKGRFTISRDNAKNTVYLQMNSLKPEDSAVYYCAADYTGSFYTYDYWGQGTQVTVSS”, which “polyreactivity (PSR sort gate)” value is on record?
Answer: low polyreactivity

Question: Which “polyreactivity (PSR sort gate)” value does the source give for “QVRLVESGGGLVQAGGSLRLSCAASARILPYYPMGWYRQAPGKERELVAAISWSGGRTYYADSVKGRFTISRDNAKNTVYLQMNSLKPEDTAVYYWATRRVTHVPGSSRYDYWGQGTQVTVSS” here?
Answer: low polyreactivity

Question: With “QVRLVESGGGLVQAGGSLRLSCAASGRIFQYYAMGWYRQAPGKERELVASITSGGGSTYYADSVKGRFTISRDNAKNTVYLQMNSLKPEDTAVYYCNARWYGLSTRYDYWGQGTQVTVSS” as the sequence, how does the “polyreactivity (PSR sort gate)” value read?
Answer: low polyreactivity

Question: With “QVRLVESGGGLVQAGGSLRLSCAASGRTFTHNVMGWYRQAPGKERELVAGISSTGGSTYYADSVKVRFTISRDNAKNTVYLQMNSRKPEDPAVYYCNADYASYYRYSRPLEMNYWGQGTQVTVSS” as the sequence, how does the “polyreactivity (PSR sort gate)” value read?
Answer: low polyreactivity

Question: For “QVRLVESGGGLVQAGGSLRLSCAASGSTFYPYDMGWYRQAPGKERELVATISSGVSTNYADSVKGRFTISRDNAKNTVYLQMNSLKPEDTAVYYCAVDYFIGDDDYWGQGTQVTVSS”, which “polyreactivity (PSR sort gate)” value is on record?
Answer: low polyreactivity

Question: For “QVTLVESGGGLVQAGGSLRLSCAASGSIRGYALGWSRQPPGKDRALVAAMSWRGGSTYYADSVKGRFTISRDNAKNTVYLQMNSLKPEETAVYYCAVEYVYWLSWYFQYDYWGQGTQVTVSS”, which “polyreactivity (PSR sort gate)” value is on record?
Answer: low polyreactivity

Question: For “QYQLVESGGGLVHEGGSLSLRCAASGSNLYYYAMGWYRKAPGKERDLDAAITYSGGNTYYADSVKGRFTISRDNAKNNVYLQMNSLKPEDTAVYYCAADDWSSDYIRYEYWGQGTQVTVSS”, which “polyreactivity (PSR sort gate)” value is on record?
Answer: low polyreactivity

Question: With “RVHLVESGGGLVQAGGSLRLSCAASGRIFDNYVMGWYRQAPGKESELVAAISSGGGTYYADSVKGRFTISRDNAKNTVYLQMKSLKPEDTAVYFCAKRRVFDRSFGRYDYWGQGTQVTVSS” as the sequence, how does the “polyreactivity (PSR sort gate)” value read?
Answer: low polyreactivity

Question: Which “polyreactivity (PSR sort gate)” value does the source give for “RVQLVESGGGLVQAGGSLRLSCAASGRIFSYKAMGWYRQAPGKERELVAAITFSGGGTYYADSVKGRFTISRDNAKNPVYLQMNSLKPEDTAVYYCNKVSYGYSSYGYWGQGTQVTVSS” here?
Answer: low polyreactivity

Question: With “RVQLVESGGGLVQAGGSLRLSCAASGRTFVNYAMGWYRQAPGKEREFVAAITNGGRTNYADSVKGRFTISRDNAKNTVYLQMNSLQPEETEVYYCAARYRFGGIRRYNYWGQGTQVTVSS” as the sequence, how does the “polyreactivity (PSR sort gate)” value read?
Answer: high polyreactivity

Question: Which “polyreactivity (PSR sort gate)” value does the source give for “RVQLVESGGGLVQAGGSLRLSCAASGSTFENYAMGWYRQAPGKERELVAAISSGGSTYYADSVKGRFTISRDNAKNTVYLQMNSLKPEDTAVYYCAAELEYWLYGYGYYYWGQGTQVTVSS” here?
Answer: high polyreactivity

Question: With “RYADSVKGRFTISRDNAKNTDYLQMNSLKPEDTAVYYCAAKGPEPPSLDESDYWGQVTQVTVSS” as the sequence, how does the “polyreactivity (PSR sort gate)” value read?
Answer: low polyreactivity
